# Values of other authors in article PMC4390431.
# Read-outs that look alike come from different tables or passages of the source.
# Assays:
# IscU (Escherichia coli) [1] = target: IscU (Escherichia coli) (UniProt P0ACD4); test: SPR
# IscU (Escherichia coli) [2] = target: IscU (Escherichia coli) (UniProt P0ACD4); test: SPR; remark: listed apart in the source
# Sequence of UniProt P0ACD4 (P0ACD4 whole entry): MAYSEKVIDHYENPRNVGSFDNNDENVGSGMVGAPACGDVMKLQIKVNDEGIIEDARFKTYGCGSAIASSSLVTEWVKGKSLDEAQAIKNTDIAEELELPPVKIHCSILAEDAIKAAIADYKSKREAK
substance,measurement,setting,value
HscA (from UniProt P0A6Z1),Kd,IscU (Escherichia coli) [1],37 µM
same,Kd,IscU (Escherichia coli) [2],0.1 µM
